# In article PMC10399903:
# What was measured:
# Test in all cases: phage adsorption assay; 10^6 pfu of χ phage added to 10 ml LB cultures of motile cells at OD600 2.0, shaken ten minutes at 37°C; cells pelleted at 15,000 x g and phage left in the supernatant titered by plaque assay; adsorption = (1 - pfu supernatant with cells/pfu control without cells) * 100%
# [1] = target: ser. Enteritidis FliC with both D2 domains and D3 replaced by their ser. Typhimurium equivalents (strain FliC11) (Salmonella enterica serotype Enteritidis P125109 | Salmonella enterica serotype Typhimurium 14028s) (UniProt Q06972)
# [2] = target: ser. Typhimurium FliC with D3 replaced by D3 from ser. Enteritidis FliC (strain FliC6) (Salmonella enterica serotype Typhimurium 14028s | Salmonella enterica serotype Enteritidis P125109) (UniProt P06179)
# [3] = target: ser. Typhimurium FliC with a deletion of D3 (strain FliC3) (Salmonella enterica serotype Typhimurium 14028s) (UniProt P06179)
# [4] = target: wild type ser. Typhimurium FliC (strain FliC1) (Salmonella enterica serotype Typhimurium 14028s) (UniProt P06179)
substance,measurement,setting,value
Bacteriophage χ (Chi),percentage of phage particles adsorbed after ten minutes,[1],48%
same,percentage of phage particles adsorbed after ten minutes,[2],67%
same,percentage of phage particles adsorbed after ten minutes,[3],95%
same,percentage of phage particles adsorbed after ten minutes,[4],99%
